As usually defined, the stoichiometry N is a count of units in the complex or per binding partner.

“And” between values parts separate entries of the source, which are not always exact repeats. Identical values can stand only once.

Data set [1] has as its target Aged MuV nucleoprotein (NWT kept at 4 °C for 4 weeks, digested by residual impurities) (mumps virus) (UniProt Q77IS8). Put plainly: cryo-EM structure; filaments of NWT after 4 weeks of digestion at 4 °C; helical reconstruction of three classes (NC_(helix-dense), NC_(helix-hyper), N_(ring-stacked) with C13 symmetry); with enwrapped RNA.
Data set [2] concerns the molecule itself. The experiment in a line: cryo-EM structure; single particle analysis of freshly purified NWT rings with enwrapped E. coli RNA; ~1 mg/mL; 20 mM Tris-HCl pH 7.4, 150 mM NaCl; micrographs at 0°, 20° and 40° tilt; 2D classification and refinement with C13 or C14 symmetry.

Regarding “Aged MuV nucleoprotein (NWT kept at 4 °C for 4 weeks, digested by residual impurities) (from UniProt Q77IS8 1-549) (domain or fragment)”, the stoichiometry N in data set [1] was 13 protomers.

B1: Mumps virus (MuV) nucleoprotein, full length (1–549), freshly purified (natural protein)
chain: MSSVLKAFERFTIEQELQDRGEEGSIPPETLKSAVKVFVINTPNPTTRYQMLNFCLRIICSQNARASHRVGALITLFSLPSAGMQNHIRLADRSPEAQIERCEIDGFEPGTYRLIPNARANLTANEIAAYALLADDLPPTINNGTPYVHADVEGQPCDEIEQFLDRCYSVLIQAWVMVCKCMTAYDQPAGSADRRFAKYQQQGRLEARYMLQPEAQRLIQTAIRKSLVVRQYLTFELQLARRQGLLSNRYYAMVGDIGKYIENSGLTAFFLTLKYALGTKWSPLSLAAFTGELTKLRSLMMLYRGLGEQARYLALLEAPQIMDFAPGGYPLIFSYAMGVGTVLDVQMRNYTYARPFLNGYYFQIGVETARRQQGTVDNRVADDLGLTPEQRTEVTQLVDRLARGRGAGIPGGPVNPFVPPVQQQQPAAVYEDIPALEESDDDGDEDGGAGFQNGVQLPAVRQGGQTDFRAQPLQDPIQAQLFMPLYPQVSNMPNNQNHQINRIGGLEHQDLLRYNENGDSQQDARGEHVNTFPNNPNQNAQLQVGDWDE
notes: Mumps virus nucleoprotein (N), full-length gene 1–549, synthesized by GenScript, cloned into pET28b; Purified with enwrapped endogenous E. coli RNA; Only residues 1–373 are resolved in the maps; also called NWT; MuV nucleoproteins; source: E. coli, purified (nickel-nitrilotriacetic acid resin, Superose 6 gel filtration), freshly made
With B1, in data set [2], the “stoichiometry N” value is 13 protomers and 14 protomers.

The values above are taken from article PMC8253768, “Structural plasticity of mumps virus nucleocapsids with cryo-EM structures” (Communications Biology, 2021).
